Experimental findings from patent US20120190612A1, “METHODS OF TREATMENT” (CRC FOR ASTHMA AND AIRWAYS LTD., priority 2009, published 2012) are described below.

The target of one assay is VEGF-D (R&D Systems) (UniProt O43915). The assay can be described thus: cell-based or functional assay.
For assay [1], the system named is HMVEC-LLy cells. The assay can be described thus: Migration towards a VEGF-D gradient (FluoroBlok transwell). The class given is cell-based, human. As to conditions: 24 hrs. Here is the method: FluoroBlok BioCoat 24-well inserts (BD Bioscience) were seeded with 4×10^4 HMVEC-LLy cells in 750 μL DMEM with 0.1% BSA, 1% antibiotics and 25 mM HEPES and incubated for 1 hr. The bottom well was filled with 500 μL medium (as described above) with or without 10 ng/mL VEGF-D (R&D Systems) as well as various concentrations of lamstatin, tumstatin, CP17 or vehicle. Additionally, top wells were loaded with inhibitors to match the bottom well concentration. According to manufacturer's instructions cells were allowed to migrate for 24 hrs before bottom media was removed. Thereafter the underside of the transwell with the migrated cells was washed twice with HANKS buffer and placed in a 4 μg/mL calcein (HANKS) solution for 90 min at 37° C. Signal was read with a bottom read fluorescence microplate reader at 485/515 nm (excitation/emission).

The subject of assay [2] is lung adenocarcinoma cells (LNM35 AAV-GFP). The assay can be described thus: Mouse ear tumour plug model of tumour-induced lymphangiogenesis. The class given is in vivo. As to conditions: lamstatin 10 or 100 μg/mL; CP17 5 or 50 μA; vs vehicle. How it is done: A mouse ear tumour plug model was utilized in which green fluorescent protein (GFP)-tagged lung adenocarcinoma cells (LNM35 AAV-GFP) were injected between the two layers of skin of the ears of NOD/SCID mice. 1×10^6 tumour cells were embedded in […] growth factor free Matrigel® medium enriched with vehicle (1 nM EDTA, pH3.0) or lamstatin at either 10 μg/mL or 100 μg/mL. Mice were divided into three groups.
Group 1 (n=9): One ear of each mouse injected with tumour cells+10 μg/mL lamstatin; the other ear injected with tumour cells+vehicle control. Group 2 (n=9): One ear of each mouse injected with tumour cells+100 μg/mL lamstatin; the other ear injected with tumour cells+vehicle control. Group 3 (n=3): Each ear injected with Matrigel® only.
Injections were single shots such that at least 25 μL was injected. 12 days after injection were sacrificed by anesthetisation and cervical dislocation. Ears were removed for whole mount staining. Flaps of skin from each ear were carefully separated, fixed and stained for either the lymphatic endothelial cell specific marker LyVe-1 (rabbit polyclonal anti-LyVe-1 antibody detected using anti-rabbit Alexafluor 647) or the vascular endothelial cell specific marker PECAM (CD31 rat anti-mouse antibody clone MEC13.3 (Pharmingen), detected with […]). Tumour cells were visualised by detection of GFP expression. Images of representative regions of ears were obtained using a confocal microscope and LyVe-1 or PECAM staining was quantified.
Using the LyVe-1 whole mount stained mouse ear sections, the inventors further investigated the morphology of lymphatic vessel formation. Specifically confocal images were loaded into Image J software (www.sbweb.nih.gov/ij/), a 5×5 grid overlayed and vessels examined for branching and looping. The functionality of a lymphatic network is based on its maturity and in general it is accepted that a tumour induces a rather immature network formation. Reconnecting vessels (measured as loops) and increased branching (measured as branches) are signs of immature vessels induced by, for example, a tumour (see for example Shayan et al. Growth Factors 25, 417-425, 2007).
Branches were defined as two clearly distinguishable vessels that separate out without rejoining. Loops were defined as small, circular vessel structures in the same focal plane. Branches or loops were counted separately per image and mean values were calculated for each treatment group.

In a further assay the target is T1, integrin β1 (Homo sapiens, UniProt P05556+P08648).
T1 construct: endogenous in cells; host or cells: HMVEC-LLy (human primary lymphatic endothelial cells)
T1 sequence (P05556 21-798): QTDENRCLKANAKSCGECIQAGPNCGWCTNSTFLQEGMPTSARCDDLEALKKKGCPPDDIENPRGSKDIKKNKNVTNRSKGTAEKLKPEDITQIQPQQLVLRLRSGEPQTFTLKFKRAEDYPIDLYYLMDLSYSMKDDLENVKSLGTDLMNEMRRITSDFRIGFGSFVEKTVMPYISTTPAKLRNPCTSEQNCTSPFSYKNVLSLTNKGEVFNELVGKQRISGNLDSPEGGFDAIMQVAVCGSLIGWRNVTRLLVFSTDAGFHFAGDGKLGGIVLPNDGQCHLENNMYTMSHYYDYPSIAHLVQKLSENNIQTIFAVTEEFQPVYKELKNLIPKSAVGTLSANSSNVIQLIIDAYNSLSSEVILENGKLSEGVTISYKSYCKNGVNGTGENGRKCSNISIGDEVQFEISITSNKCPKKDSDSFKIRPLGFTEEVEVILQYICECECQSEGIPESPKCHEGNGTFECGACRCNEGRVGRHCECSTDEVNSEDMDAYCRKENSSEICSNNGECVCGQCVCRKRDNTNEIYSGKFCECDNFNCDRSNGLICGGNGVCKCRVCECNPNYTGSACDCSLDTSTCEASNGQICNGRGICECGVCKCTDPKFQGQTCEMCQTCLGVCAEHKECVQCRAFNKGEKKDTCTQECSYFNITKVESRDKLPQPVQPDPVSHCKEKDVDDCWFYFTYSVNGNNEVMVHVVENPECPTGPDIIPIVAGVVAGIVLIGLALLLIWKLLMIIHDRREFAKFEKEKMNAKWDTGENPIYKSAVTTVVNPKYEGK
T1 sequence (P08648 42-894 limits assumed): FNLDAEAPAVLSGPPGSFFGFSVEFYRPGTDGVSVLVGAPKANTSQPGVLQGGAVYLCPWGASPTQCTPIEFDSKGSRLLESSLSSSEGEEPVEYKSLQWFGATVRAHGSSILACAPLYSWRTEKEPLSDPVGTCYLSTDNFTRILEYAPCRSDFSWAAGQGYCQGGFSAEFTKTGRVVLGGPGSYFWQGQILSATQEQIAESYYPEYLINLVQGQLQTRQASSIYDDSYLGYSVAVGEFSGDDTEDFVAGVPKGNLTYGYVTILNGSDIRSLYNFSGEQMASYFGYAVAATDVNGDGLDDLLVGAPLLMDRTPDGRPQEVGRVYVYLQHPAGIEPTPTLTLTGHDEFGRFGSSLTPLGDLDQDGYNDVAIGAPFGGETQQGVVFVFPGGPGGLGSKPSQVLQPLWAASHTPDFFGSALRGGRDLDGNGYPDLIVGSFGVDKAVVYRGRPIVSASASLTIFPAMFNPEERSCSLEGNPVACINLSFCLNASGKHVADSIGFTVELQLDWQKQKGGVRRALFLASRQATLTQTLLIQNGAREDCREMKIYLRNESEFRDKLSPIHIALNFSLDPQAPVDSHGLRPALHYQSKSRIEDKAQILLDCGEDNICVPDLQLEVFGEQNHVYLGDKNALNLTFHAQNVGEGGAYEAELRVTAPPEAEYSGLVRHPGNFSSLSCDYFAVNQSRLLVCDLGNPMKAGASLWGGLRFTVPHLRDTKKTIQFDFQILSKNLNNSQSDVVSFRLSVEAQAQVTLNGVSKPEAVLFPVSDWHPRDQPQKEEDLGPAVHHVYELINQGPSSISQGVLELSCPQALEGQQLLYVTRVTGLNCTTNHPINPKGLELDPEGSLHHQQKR
T1 sequence (P08648 895-1049 limits assumed): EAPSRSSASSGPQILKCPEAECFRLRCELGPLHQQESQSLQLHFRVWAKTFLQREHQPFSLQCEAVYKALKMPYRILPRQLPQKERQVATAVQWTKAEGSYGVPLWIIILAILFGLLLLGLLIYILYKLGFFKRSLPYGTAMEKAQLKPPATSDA
The assay can be described thus: Integrin binding of HMVEC-LLy cells on antibody-coated plates. The class given is cell-based. The conditions noted are these: lamstatin 10 μg/ml, CP17 5 μM, 1 h. How it is done: (§1) Antibodies for integrin α5 (MAB1956Z; MAB1953Z), integrin β1 (MAB2253Z) and integrin β3 (MAB1957Z) (all Millipore, USA) were coated to 96 well tissue culture plates (Nunc, USA) at a concentration of 10 μg/mL overnight at 4° C. in sterile coating buffer (50 mM Na2CO3, 50 mM NaHCO3, pH 9.6). Plates then were blocked with sterile 1% BSA/PBS for 1 h at 37° C. and washed twice with EBM-2 MV (Lonza, Basel, Switzerland). MMVEC-LLy cells were carefully removed from culture flasks with non-enzymatic detachment solution (Trevigen, Md., USA) and washed twice with EBM-2 (Lonza, Basel, Switzerland). Volume was adjusted to a cell concentration of 50,000 cells/100 μL and divided into aliquots for treatment with recombinant lamstatin (10 μg/ml), CP17 (5 μM) or vehicle (1 nM EDTA, pH 3.5) only. Cells were then transferred to the antibody-coated plates and incubated for 1 h at 37° C. Wells were then washed with HANKS twice to remove unbound cells and fixed with 4% paraformaldehyde (in PBS) for 15 min at room temperature. Wells thereafter were photographed with an Olypmus CAMEDIA C-4000 camera mounted to an Olympus CK2 microscope. Pictures were divided into 25 segments and cells of 5 center-near quadrants were counted and averaged. […] Using a similar approach, the inventors observed no expression of integrin α4 on the surface of HMVEC-LLy cells (data not shown).

In another assay the target is T2, integrin β3 (Homo sapiens, UniProt P05106).
T2 construct: endogenous in cells; host or cells: HMVEC-LLy (human primary lymphatic endothelial cells)
T2 sequence (P05106 27-788): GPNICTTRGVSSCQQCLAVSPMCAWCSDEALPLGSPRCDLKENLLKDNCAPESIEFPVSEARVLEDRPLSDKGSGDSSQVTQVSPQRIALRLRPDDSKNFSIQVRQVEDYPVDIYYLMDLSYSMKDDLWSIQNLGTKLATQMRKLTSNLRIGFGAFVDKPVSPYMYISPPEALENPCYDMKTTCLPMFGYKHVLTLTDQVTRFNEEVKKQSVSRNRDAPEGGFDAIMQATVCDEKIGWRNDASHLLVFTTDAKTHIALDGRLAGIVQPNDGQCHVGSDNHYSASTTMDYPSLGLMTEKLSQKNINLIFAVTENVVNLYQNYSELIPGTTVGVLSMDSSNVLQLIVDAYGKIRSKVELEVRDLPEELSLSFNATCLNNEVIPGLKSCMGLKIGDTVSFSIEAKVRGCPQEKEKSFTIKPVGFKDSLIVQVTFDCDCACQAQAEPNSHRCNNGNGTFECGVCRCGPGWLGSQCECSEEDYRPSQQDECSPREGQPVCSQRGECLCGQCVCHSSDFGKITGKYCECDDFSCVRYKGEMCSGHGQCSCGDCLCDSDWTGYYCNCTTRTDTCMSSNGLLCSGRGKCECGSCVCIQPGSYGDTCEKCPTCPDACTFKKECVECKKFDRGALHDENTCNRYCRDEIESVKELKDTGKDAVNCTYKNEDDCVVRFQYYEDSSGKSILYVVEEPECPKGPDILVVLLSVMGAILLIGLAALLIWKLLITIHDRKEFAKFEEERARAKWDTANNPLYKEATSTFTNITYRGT
T2 sequence (P06756 31-889 limits assumed, further chain): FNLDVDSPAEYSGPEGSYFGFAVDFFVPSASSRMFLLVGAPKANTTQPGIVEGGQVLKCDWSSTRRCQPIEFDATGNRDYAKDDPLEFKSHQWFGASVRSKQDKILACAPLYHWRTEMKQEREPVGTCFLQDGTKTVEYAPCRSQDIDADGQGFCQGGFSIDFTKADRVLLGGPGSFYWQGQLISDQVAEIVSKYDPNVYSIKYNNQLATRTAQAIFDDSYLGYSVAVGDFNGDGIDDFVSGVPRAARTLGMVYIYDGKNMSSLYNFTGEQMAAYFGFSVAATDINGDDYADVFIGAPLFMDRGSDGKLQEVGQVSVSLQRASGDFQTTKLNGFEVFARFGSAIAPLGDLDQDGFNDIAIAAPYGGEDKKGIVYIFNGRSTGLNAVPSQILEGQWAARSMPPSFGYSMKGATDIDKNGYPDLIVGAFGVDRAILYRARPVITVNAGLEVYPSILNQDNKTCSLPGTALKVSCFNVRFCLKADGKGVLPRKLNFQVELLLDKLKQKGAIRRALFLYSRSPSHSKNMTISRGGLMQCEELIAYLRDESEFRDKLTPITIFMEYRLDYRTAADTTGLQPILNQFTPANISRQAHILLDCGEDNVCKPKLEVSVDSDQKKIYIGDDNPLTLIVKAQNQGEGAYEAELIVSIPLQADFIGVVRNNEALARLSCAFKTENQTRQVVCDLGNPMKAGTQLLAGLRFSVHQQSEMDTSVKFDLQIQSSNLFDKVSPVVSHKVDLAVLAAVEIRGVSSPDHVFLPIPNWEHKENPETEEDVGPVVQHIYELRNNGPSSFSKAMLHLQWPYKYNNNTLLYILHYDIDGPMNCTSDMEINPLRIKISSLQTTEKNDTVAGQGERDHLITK
T2 sequence (P06756 891-1048 limits assumed, further chain): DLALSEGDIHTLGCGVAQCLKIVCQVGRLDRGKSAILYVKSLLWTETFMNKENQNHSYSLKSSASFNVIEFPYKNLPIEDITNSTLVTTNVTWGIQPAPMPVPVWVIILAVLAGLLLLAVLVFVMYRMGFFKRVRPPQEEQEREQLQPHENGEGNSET
The assay is described as above. The class given is cell-based. As to conditions: lamstatin 10 μg/ml, CP17 5 μM, 1 h. How it is done: as §1

Another assay addresses T3, integrin α5 (Homo sapiens, UniProt P05556+P08648).
T3 construct: endogenous in cells; host or cells: HMVEC-LLy (human primary lymphatic endothelial cells)
Described as above. The class given is cell-based. The conditions noted are these: lamstatin 10 μg/ml, CP17 5 μM, 1 h. Here is the method:
as §1

In assay [3] the test system is HMVEC-LLy cells. Put plainly: Tube formation on Matrigel. The class given is cell-based, human. The conditions noted are these: 24 hrs, n=2. How it is done: To assess formation of tubular structures, 48 well plates were coated with 130 μL Matrigel® (BD Bioscience), which was solidified at 37° C. over 45 min. 2×10^4 HMVEC-LLy cells in complete EBM-2 (500 μL) were seeded per well and allowed to attach for 30 min, before lamstatin, tumstatin, CP17 or vehicle was added to the wells. Photos were taken with a Kodak Digital Camera every 2 hrs. Tube formation peaked at 24 hrs, at which time tubular structures were further analysed to determine length (in pixels) and number of tubes per high power field (HPF) area (px^2). The HPF was divided in nine regions of equal size and tubes per region were counted. Mean and SEM were calculated and plotted.

The target in another assay is T4, integrins α5 and β1 (Homo sapiens, UniProt P05556+P08648).
T4 construct: endogenous in cells; host or cells: HMVEC-LLy (human primary lymphatic endothelial cells)
The assay can be described thus: Integrins mediating binding of lymphatic endothelial cells (data not shown). The class given is cell-based. As to conditions: HMVEC-LLy in vitro, different from HUVECs.

Assay [4] has as its system human primary lymphatic endothelial cells (HMVEC-LLy cells). The assay can be described thus: MTT cell viability assay, lymphatic endothelial cells. The class given is cell-based. As to conditions: 24 hrs, data not shown. How it is done: To determine the function of lamstatin, human primary lymphatic endothelial cells (HMVEC-LLy cells) were exposed to various concentrations of lamstatin and an MTT assay was performed. As a comparison, commercially available tumstatin was used. Specifically, to assess cell viability 4×10^3 HMVEC-LLy cells were seeded per well in 100 μl complete EBM-2 media (with bullet kit, Lonza) and incubated for 2 hrs at 37° C., 5% CO2. After this period lamstatin, tumstatin and respective vehicles (1 nM EDTA, pH 3.0) were prepared in complete EBM-2 as serial dilutions in a separate plate and added. […] After 6 h of further incubation cells were lysed overnight with 10% SDS/0.01 M HCl and measured the following day in a plate reader at 570 nm.
The MTT assay was performed as described above.
(In general: Tetrazolium dyes change colour on reduction, which living cells bring about.)

The next assay concerns LAM nodule cells. Put plainly: MTT cell viability assay, LAM nodule cells. The class given is cell-based. The conditions noted are these: intermediate layer, centre and outer nodule cells, 72 hrs. How it is done:
To determine the function of lamstatin, human primary lymphatic endothelial cells (HMVEC-LLy cells) were exposed to various concentrations of lamstatin and an MTT assay was performed. As a comparison, commercially available tumstatin was used. Specifically, to assess cell viability 4×10^3 HMVEC-LLy cells were seeded per well in 100 μl complete EBM-2 media (with bullet kit, Lonza) and incubated for 2 hrs at 37° C., 5% CO2. After this period lamstatin, tumstatin and respective vehicles (1 nM EDTA, pH 3.0) were prepared in complete EBM-2 as serial dilutions in a separate plate and added. Cells were grown for 24 hrs before MTT (1 mg/mL in PBS) was added. After 6 h of further incubation cells were lysed overnight with 10% SDS/0.01 M HCl and measured the following day in a plate reader at 570 nm.
The inventors isolated lung cells from a LAM patient, which cells originated from the LAM nodules. These cells were termed according to their location within the nodule, as intermediate layer in the nodule, centre cells and outer nodule cells. These cells were then treated with lamstatin or tumstatin and cell viability measured after 72 hrs. The MTT viability assay was performed as described above in Example 1.

T3 sequence (P08648 42-894 limits assumed): as the sequence (P08648 42-894 limits assumed) above
T3 sequence (P08648 895-1049 limits assumed): as the sequence (P08648 895-1049 limits assumed) above
T3 sequence (P05556 21-798): as the sequence (P05556 21-798) above

With “VEGFD specific blocking fusion receptor (R3-FC) (Fc fusion)”, the migration of HMVEC-LLy towards a VEGFD gradient after 24 hrs (RFU) with VEGF-D (R&D Systems) is under 15000 RFU.

For “VCNFASRNDYSYWLSTP (listed as Homo sapiens) [CP17]”, the “migration towards a VEGFD gradient” value in the assay with HMVEC-LLy cells [1] (n=1, VEGFD alone 42.000 RFU) is “the same effect was not observed”. In assay [2], the “number of branches of lymphatic vessels” value was “significantly reduced” and the “number of loops of lymphatic vessels” value was “significantly reduced”. In addition, in the assay with integrin β1, the “cell binding in presence of monoclonal antibody against integrin β1” value is reported as “significantly inhibited cell binding”. For the same molecule, in the assay with integrin β3, the “cell binding in presence of monoclonal antibody against integrin β3” value is “no effect on binding”. Besides, in the assay with integrin α5, the “cell binding in presence of monoclonal antibody against integrin α5” value is reported as “significantly inhibited cell binding”. The “numbers of tube-like structures formed” value in the assay on HMVEC-LLy cells [3] is “reduce in a concentration related manner”. The “predominant integrins that mediate the binding of lymphatic endothelial cells” value with integrins α5 and β1 is “integrins α5 and β1”.

B1: VEGFD: growth factor (R&D Systems) used as chemoattractant gradient for lymphatic endothelial cells (protein)
chain: FYDIETLKVIDEEWQRTQCSPRETCVEVASELGKSTNTFFKPPCVNVFRCGGCCNEESLICMNTSTSYISKQLFEISVPLTSVPELVPVKVANHTGCKCLPTAPRHPYS
For the molecule B1, the “migration of lymphatic endothelial cells towards VEGFD” value with HMVEC-LLy cells [1] (increasing concentrations of VEGFD) is “attract lymphatic endothelial cells in a concentration related manner”.

B2: tumstatin: NC1 domain of the α3 chain of collagen type IV; human sequence SEQ ID NO:3; commercially available tumstatin was used (protein, listed as Homo sapiens)
chain: GFVFTRHSQTTAIPSCPEGTVPLYSGFSFLFVQGNQRAHGQDLGTLGSCLQRFTTMPFLFCNVNDVCNFASRNDYSYWLSTPALMPMNMAPITGRALEPYISRCTVCEGPAIAIAVHSQTTDIPPCPHGWISLWKGFSFIMFTSAGSEGTGQALASPGSCLEEFRASPFLECHGRGTCNYYSNSYSFWLASLNPERMFRKPIPSTVKAGELEKIISRCQVCMKKRH
Consider B2, for which the “cell viability (MTT)” value in [4] is on record as “lamstatin only”. Moreover, the “reduction of cell viability (MTT)” value in the assay with LAM nodule cells is “effective in reducing cell viability at higher concentrations”. In addition, the “numbers of tube-like structures formed” value with HMVEC-LLy cells [3] is listed as “reduce in a concentration related manner”. The “predominant integrins that mediate the binding of lymphatic endothelial cells” value in the assay with integrins α5 and β1 is “integrins α5 and β1”.
